Assay results from paper PMC5888981, “Scopoletin 8-hydroxylase: a novel enzyme involved in coumarin biosynthesis and iron-deficiency responses in Arabidopsis” (Journal of Experimental Botany, 2018).

Substrate: COc1cc2ccc(=O)oc2cc1O
Test: purified protein
Type: biochemical, Arabidopsis thaliana
Conditions: Fe2+, 2-oxoglutarate and ascorbate, pH 8.0 (methods b28 say optimal pH 7.0), 31.5 °C, 10 min, 0.1 M potassium phosphate

B1: S8H (scopoletin 8-hydroxylase; At3g12900 oxidoreductase) (Arabidopsis thaliana) (protein)
chain: GINFEDQTTLFNFVVREGNGVKGMIDSGLSSVPRPFVQPLSERIPTQKALTCEATQPIDLSNLDGPQHKEVAKQIVEAAETLGFFQVVNHGVSVELLELLKSSAHEFFAQAPEEKSMYLKEVSPSKLVKYGTSFVPDKEKAIEWKDYVSMLYTNDSEALQHWPQPCREVALEFLNSSMEMVKNVVNILMENVGVTLEEEKMNGLMGTKMVNMNYYPTCPSPELTVGVGRHSDMGMLTVLLQDGIGGLYVKLDNGEWAEIPPVHGALVINIGDTLQILSNGKYKSAEHRVRTTNIGSRVSVPIFTAPNPSQKVGPLPEVVKRDGVARYKEFLFQDYMNNFFGQPHDGKKSLDFARAE
notes: S8H ORF in pET28a+ (BamHI/XhoI), 6xHis-tagged, no tag removal described; E. coli Rosetta 2; TALON purified
Km: 11 ± 2 µM | kcat: 1.73 ± 0.09 s^–1
